Literature values as cited in patent publication US11376231B2, “Compositions of bioactive fulvate fractions and uses thereof” (OMNI BIOCEUTICAL INNOVATIONS, INC., priority 2016, dated 2022).
Like-named read-outs stand apart in the source and are kept apart here.

System: chronic wounds
Parameters: key: N.S. = not statistically significant

Molecule | Results (pressure (20), 1, 10, and 100 μg/mL daily, Robson et al.) | Results (pressure (45), 1 and 3 μg/mL daily, Mustoe et al.) | Results (venous (36), 2.5 μg/cm^2 three times per week, Robson et al.)
PDGF-BB: platelet-derived growth factor BB (protein, UniProt P01127 82-190, looked up, homodimer) Platelet-derived growth …: SLGSLTIAEPAMIAECKTRTEVFEISRRLIDRTNANFLVWPPCVEVQRCSGCCNNRNVQCRPTQVQLRPVQVRKIEIVRKKPIFKKATVTLEDHLACKCETVAAARPVT | N.S. | N.S. | 
TGF-β2: transforming growth factor-β2 (protein, UniProt P61812 303-414, looked up, Transforming growth factor beta-2) Transforming growth factor …: ALDAAYCFRNVQDNCCLRPLYIDFKRDLGWKWIHEPKGYNANFCAGACPYLWSSDTQHSRVLSLYNTINPEASASPCCVSQDLEPLTILYYIGKTPKIEQLSNMIVKSCKCS |  |  | N.S.
